Experimental findings from EP4806905A1, “PEPTIDE, PEPTIDE COMPLEX, PHARMACEUTICAL COMPOSITION, COMPOSITION FOR CELL CULTURE, AND COMPOSITION FOR MEDICAL USE, DIAGNOSTIC USE, OR RESEARCH USE” (PeptiDream Inc., priority 2023, dated 2025) are described below.

Numbered stars: 1 amine (or outer) side, 2 acyl side, 3 side chain; on linkers, the order of the positions; unused ones are H or OH. Square brackets hold non-standard residues; d marks the D form. Ends that are not written are not given here. X1 = (S)‑3‑(2-carboxy-2-(methylamino)ethyl)benzoic acid, CN([C@@H](Cc1cccc(C(=O)[*:3])c1)C(=O)[*:2])[*:1]; Trp(7-aza) = N[C@@H](Cc1c[nH]c2ncccc12)C(=O)O; Ala(4-THP) = N[C@@H](CC1CCOCC1)C(=O)O; NMe4Pal = CN[C@@H](Cc1ccncc1)C(=O)O; NMeF = CN[C@@H](Cc1ccccc1)C(=O)O; Tic = O=C(O)[C@@H]1Cc2ccccc2CN1; Cit = NC(=O)NCCC[C@H](N)C(=O)O; NMeV = CN[C@H](C(=O)O)C(C)C

One experiment concerns the target T1, Frizzled-7 (FZD7) (Homo sapiens, UniProt O75084).
T1 construct: purchased R&D systems 6178-FZ
Briefly: Evaluation of binding activity to Frizzled using ELISA (Frizzled-7). Conditions: peptide complex (linker structure number 9 added to the peptide) diluted to 10 nM; absorbance at 450 nm minus wells with no added peptide complex. On the procedure:
(§1) In order to evaluate the binding activity of the synthesized peptide complexes (peptide complexes having the linker structure number 9 added to peptide sequence numbers 1 to 78) to Frizzled, a binding activity evaluation using the ELISA method was conducted using the steps described below.
(§2) Biotin-labeled polyclonal anti-human IgG (eBioscience; 13-4998) was added to a streptavidin-coated 96-well plate (Thermo; 436014) in an amount of 200 µg per well, and left to stand for 30 minutes.
(§3) Following washing three times with PBS-T, 3 pmol of Fc-tagged Frizzled-2 (R&D systems; 1307-FZ), Frizzled-7 (R&D systems; 6178-FZ), or Frizzled-8 (R&D systems; 6129-FZ) was added per well and left to stand for 30 minutes to immobilize each Frizzled on the plate.
(§4) Following washing three times with PBS-T, the peptide complex diluted to 10 nM was added to Frizzled-2 and Frizzled-7, the peptide complex diluted to 500 nM was added to Frizzled-8, and the plate was left to stand for one hour.
(§5) Following washing three times with PBS-T, Anti-HA-tag mAb-HRP-Direct T (MBL; M180-7) that had been diluted 5000-fold with PBS-T was added and left to stand for 30 minutes.
(§6) Following washing three times with PBS-T, SureBlue TMB I-Component Microwell Peroxidase Substrate (SeraCare; 5120-0077) was added and left to stand for 10 minutes, and the reaction was then halted by adding an equal volume of TMB Stop Solution (SeraCare; 5150-0021).
(§7) Using an Infinite M Nano* (TECAN), the absorbance was measured at 450 nm. The binding signal for each peptide complex was calculated by subtracting the absorbance in those wells containing no added peptide complex from the absorbance in those wells containing the added peptide.
(In general: An ELISA detects its analyte on a solid surface through an enzyme-linked reagent.)

For experiment [1], the system named is TCF/LEF Reporter-HEK 293 cells. The experiment in a line: Evaluation of Wnt signal activation capability, TCF/LEF reporter assay. It counts as cell-based. Conditions: dimer structure numbers 1 to 43; classes 2-A to 2-E; tested at 0.1/1/10/100/1,000 nM depending on the dimer. How it is done: In order to evaluate the Wnt signal activation capability of each of the synthesized peptide complexes (dime structure numbers 1 to 67), transcriptional activity was evaluated using a TCF/LEF reporter.
TCF/LEF Reporter-HEK 293 cells (BPS Bioscience) were cultured in EMEM (Fuji FILM) containing 10% FBS (Thermo Fisher Scientific), 50 µg/mL Gentamicin (Nacalai Tesque), and 400 µg/mL Geneticin (Thermo Fisher Scientific).
The cells were detached using TrypLE (Thermo Fisher Scientific) and then suspended in EMEM containing 10% FBS, 50 µg/mL Gentamicin, and 10 mM LiCl (Sigma).
The cells were seeded into a white 96-well plate (Thermo Fisher Scientific) for cell adhesion and luminescence detection at a rate of 35,000 cells per well, and were then cultured overnight.
Subsequently, Recombinant Human Wnt-3a Protein (R&D systems) or a peptide complex was added in the presence of 1 nM Recombinant Human R-spondin 1 (R&D systems), and stimulation was conducted for 5 hours and 30 minutes in a CO2 incubator at 37°C.
The ONE-Glo Luciferase Assay System (Peomega) was added and shaken for 4 minutes, and the resulting luminescent signals were detected using a SpectraMax Paradigm multimode microplate reader (Molecular Devices).
The thus obtained signals were analyzed using a GraphPad Prism, and the percentage activity was calculated with the maximum value of the signal value induced by Wnt3a deemed to be 100% and the signal value with no stimulus deemed to be 0%. Evaluations were conducted with the Wnt concentration within a range from […] to determine the 100% value.
For each dimer structure number, tests were conducted using the peptide complex addition concentrations described below. • a) For dimer structure number 1, 1 nM, 10 nM, 100 nM, and 1,000 nM • b) For dimer structure numbers 2 to 4, 1 nM, 10 nM, and 100 nM • c) For dimer structure numbers 5 to 14, 0.1 nM, 1 nM, 10 nM, and 100 nM • d) For dimer structure numbers 15 to 43, 0.1 nM, 1 nM, and 10 nM • e) For dimer strength numbers 44 to 56, six points starting at 30 nM and then reducing by a common ratio of 1/4 (0.03 nM, 0.12 nM, 0.47 nM, 1.9 nM, 7.5 nM and 30 nM) • f) For dimer strength numbers 57 to 67, six points starting at 30 nM and then reducing by a common ratio of 1/5 (0.0096, 0.048, 0.24, 1.2, 6.0, and 30 nM)

The target in a further experiment is T2, Frizzled-8 (FZD8) (Homo sapiens, UniProt Q9H461).
T2 construct: purchased R&D systems 6129-FZ
T2 sequence (Q9H461 28-158 limits assumed): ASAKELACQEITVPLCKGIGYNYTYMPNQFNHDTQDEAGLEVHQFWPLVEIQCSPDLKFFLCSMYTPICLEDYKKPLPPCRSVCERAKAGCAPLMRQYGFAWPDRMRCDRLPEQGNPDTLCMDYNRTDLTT
Briefly: Evaluation of binding activity to Frizzled using ELISA (Frizzled-8). The settings on record: peptide complex (linker structure number 9 added to the peptide) diluted to 500 nM; absorbance at 450 nm minus wells with no added peptide complex. How it is done:
as §1, §2, §3, §4, §5, §6, §7

In the next experiment the target is T3, Frizzled-2 (FZD2) (Mus musculus, UniProt Q9JIP6).
T3 construct: purchased R&D systems 1307-FZ
The experiment in a line: Evaluation of binding activity to Frizzled using ELISA (Frizzled-2). Conditions: peptide complex (linker structure number 9 added to the peptide) diluted to 10 nM; absorbance at 450 nm minus wells with no added peptide complex. On the procedure:
as §1, §2, §3, §4, §5, §6, §7

As for “Dimer structure number 46: dimer of peptide SEQ ID NO: 35 and peptide SEQ ID NO: 79 via linker structure number 8 (chain 1 [dF]S[Ala(4-THP)]IRY[NMeF]VT[NMeF]I[NMeV]GCG; chain 2 FRWDVR[NMeF]SNWN[Tic]NCG; cysteine pairing not given here; also: dimer via linker structure number 8, attachment not given here)”, the “ELISA signal Frizzled-7 (FZD7)” value in the experiment with Frizzled-7 (FZD7) is reported as 0.3. For the same substance, the “TCF/LEF Reporter Assay Result” value in experiment [1] is recorded as 2-C (peptide complexes that exhibited 50% or more activity when 10 nM of the peptide complex was added). For the same substance, the “ELISA signal Frizzled-8 (FZD8)” value with Frizzled-8 (FZD8) is listed as 0.0. Moreover, in the experiment with Frizzled-2 (FZD2), the “ELISA signal Frizzled-2 (FZD2)” value is 0.3.

Regarding “df-S-D-I-R-Y-MeF-V-T-MeF-I-MeV-ds-C-G ([dF]SDIRY[NMeF]VT[NMeF]I[NMeV][dS]CG) [Peptide sequence number 66]”, in the experiment with Frizzled-7 (FZD7), the “ELISA signal Frizzled-7 (FZD7)” value is listed as 1.4. For the same substance, the “TCF/LEF Reporter Assay Result” value in experiment [1] was 2-C (peptide complexes that exhibited 50% or more activity when 10 nM of the peptide complex was added). For the same substance, in the experiment with Frizzled-8 (FZD8), the “ELISA signal Frizzled-8 (FZD8)” value is given as 0.7. Also, in the experiment with Frizzled-2 (FZD2), the “ELISA signal Frizzled-2 (FZD2)” value amounted to 1.5.

As to “Peptide sequence number 99: peptide of formula B3, amino acid residues shown in Table 2 (FRWDVR[NMeF]SN[Trp(7-aza)]N[Tic]NCG)”, the “ELISA signal Frizzled-7 (FZD7)” value with Frizzled-7 (FZD7) was 0.0. In addition, the “TCF/LEF Reporter Assay Result” value in experiment [1] is listed as 2-C (peptide complexes that exhibited 50% or more activity when 10 nM of the peptide complex was added). For the same substance, the “ELISA signal Frizzled-8 (FZD8)” value in the experiment with Frizzled-8 (FZD8) was determined as 0.4. In addition, the “ELISA signal Frizzled-2 (FZD2)” value in the experiment with Frizzled-2 (FZD2) is 0.0.

On to “Dimer structure number 66: dimer of peptide SEQ ID NO: 76 and peptide SEQ ID NO: 163 via linker structure number 3 (chain 1 [dF]S[Cit]IRY[NMeF]VT[NMe4Pal]I[NMeV][dS]CG; chain 2 FR[Trp(7-aza)]DVR[X1]SE[Trp(7-aza)]N[Tic]DCG; not fully specified; cysteine pairing not given here; also: dimer via linker structure number 3, attachment not given here)”, for which the “ELISA signal Frizzled-7 (FZD7)” value with Frizzled-7 (FZD7) is reported as 1.7. The “TCF/LEF Reporter Assay Result” value in experiment [1] is 2-B (peptide complexes that exhibited 50% or more activity when 1 nM of the peptide complex was added). For the same substance, the “ELISA signal Frizzled-8 (FZD8)” value with Frizzled-8 (FZD8) is reported as 1.5. Further, the “ELISA signal Frizzled-2 (FZD2)” value with Frizzled-2 (FZD2) came to 1.7.
